Results taken from publication PMC4908242, “Functional Characterization of a Small-Molecule Inhibitor of the DKK1-LRP6 Interaction” (ISRN Molecular Biology, 2012).

Columns and labels:
[1] = molecular target: T1, Full-length human LRP6-Fc tagged (R&D Systems) (human, UniProt O75581 20-1613); assay: SPR; Biacore T100. LRP6-Fc immobilised by amine coupling on a CM3 chip (3000 RU); DKK1 3-54 nM injected for 180 sec; HBS-EP+ pH 7.4, 25°C; apparent KD calculated as kd/ka; details: both partners purified
[2] = molecular target: T1, Full-length human LRP6-Fc tagged (R&D …); assay: SPR; Biacore T100. LRP6-Fc (0.5 μg/mL) captured on Protein A that was amine-coupled to a CM3 chip; DKK1 3-54 nM injected; HBS-EP+ pH 7.4, 25°C; apparent KD; details: both partners purified

T1 sequence (O75581 20-1613): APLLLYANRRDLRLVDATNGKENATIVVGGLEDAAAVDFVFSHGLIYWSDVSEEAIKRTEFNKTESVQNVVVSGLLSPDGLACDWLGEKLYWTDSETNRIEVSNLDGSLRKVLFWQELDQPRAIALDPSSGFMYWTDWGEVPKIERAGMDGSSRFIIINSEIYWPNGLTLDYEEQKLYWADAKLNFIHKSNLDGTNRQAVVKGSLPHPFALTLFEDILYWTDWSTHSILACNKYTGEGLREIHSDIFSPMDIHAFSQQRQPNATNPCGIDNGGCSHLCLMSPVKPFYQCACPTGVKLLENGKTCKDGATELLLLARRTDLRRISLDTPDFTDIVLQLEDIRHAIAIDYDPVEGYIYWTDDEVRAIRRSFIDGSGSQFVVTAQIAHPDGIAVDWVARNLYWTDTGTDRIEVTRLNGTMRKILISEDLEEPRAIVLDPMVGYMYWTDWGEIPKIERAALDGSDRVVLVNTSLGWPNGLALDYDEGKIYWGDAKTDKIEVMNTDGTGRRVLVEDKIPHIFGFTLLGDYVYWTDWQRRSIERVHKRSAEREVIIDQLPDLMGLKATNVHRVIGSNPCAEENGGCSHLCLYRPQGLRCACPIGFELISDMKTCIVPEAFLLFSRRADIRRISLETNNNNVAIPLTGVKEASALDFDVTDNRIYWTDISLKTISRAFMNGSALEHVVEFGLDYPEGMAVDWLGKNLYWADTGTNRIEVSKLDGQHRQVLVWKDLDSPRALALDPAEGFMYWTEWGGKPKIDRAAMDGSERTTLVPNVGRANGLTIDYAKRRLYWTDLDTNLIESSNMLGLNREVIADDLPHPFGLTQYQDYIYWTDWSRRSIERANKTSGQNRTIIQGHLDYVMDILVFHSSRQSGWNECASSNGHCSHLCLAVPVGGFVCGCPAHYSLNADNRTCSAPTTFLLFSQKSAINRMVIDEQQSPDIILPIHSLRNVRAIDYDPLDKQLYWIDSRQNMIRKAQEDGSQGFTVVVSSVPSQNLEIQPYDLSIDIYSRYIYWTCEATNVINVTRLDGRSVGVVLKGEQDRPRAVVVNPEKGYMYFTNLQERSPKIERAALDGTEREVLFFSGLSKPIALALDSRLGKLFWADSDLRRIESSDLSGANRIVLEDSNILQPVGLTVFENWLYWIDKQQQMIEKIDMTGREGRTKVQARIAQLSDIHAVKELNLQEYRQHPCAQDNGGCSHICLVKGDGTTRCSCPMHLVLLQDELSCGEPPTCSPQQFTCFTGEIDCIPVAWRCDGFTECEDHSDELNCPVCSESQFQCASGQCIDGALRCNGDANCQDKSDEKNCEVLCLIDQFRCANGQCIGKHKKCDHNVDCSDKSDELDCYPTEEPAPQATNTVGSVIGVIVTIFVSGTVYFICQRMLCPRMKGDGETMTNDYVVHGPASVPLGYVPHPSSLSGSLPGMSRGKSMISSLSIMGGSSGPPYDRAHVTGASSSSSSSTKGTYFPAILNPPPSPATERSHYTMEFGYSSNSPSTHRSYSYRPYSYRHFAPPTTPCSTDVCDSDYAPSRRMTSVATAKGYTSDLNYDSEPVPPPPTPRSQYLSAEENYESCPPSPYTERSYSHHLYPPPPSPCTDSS

B1: Commercial purified recombinant human DKK1 (ligand, UniProt O94907 32-266, looked up)
chain: TLNSVLNSNAIKNLPPPLGGAAGHPGSAVSAAPGILYPGGNKYQTIDNYQPYPCAEDEECGTDEYCASPTRGGDAGVQICLACRKRRKRCMRHAMCCPGNYCKNGICVSSDQNHFRGEIEETITESFGNDHSTLDGYSRRTTLSSKMYHTKGQEGSVCLRSSDCASGLCCARHFWSKICKPVLKEGQVCTKHRRKGSHGLEIFQRCYCGEGLSCRIQKDHHQASNSSRLHTCQRH
notes: Dickkopf 1 (DKK1), human, commercial recombinant protein; Neither catalogue number nor construct limits are printed; also called Dickkopf 1; commercial recombinant DKK1; source: bought: R&D Systems, purified recombinant
Binder B1 has a Kd [1] of 0.349 nM, a koff [1] of 0.00183 s⁻¹ and a kon [1] of 5.26e+06 M⁻¹ s⁻¹. It also gave a Kd [2] of 0.84 nM.
